{"source": "paper doi:10.1101/504373", "about": "“Pyrophosphate modulates stress responses via SUMOylation” (bioRxiv, 2018)", "proteins": {"B1": {"name": "INDUCER OF CBF EXPRESSION 1 (ICE1) (natural protein, UniProt Q9LSE2 1-494, looked up)", "chain": "MGLDGNNGGGVWLNGGGGEREENEEGSWGRNQEDGSSQFKPMLEGDWFSSNQPHPQDLQMLQNQPDFRYFGGFPFNPNDNLLLQHSIDSSSSCSPSQAFSLDPSQQNQFLSTNNNKGCLLNVPSSANPFDNAFEFGSESGFLNQIHAPISMGFGSLTQLGNRDLSSVPDFLSARSLLAPESNNNNTMLCGGFTAPLELEGFGSPANGGFVGNRAKVLKPLEVLASSGAQPTLFQKRAAMRQSSGSKMGNSESSGMRRFSDDGDMDETGIEVSGLNYESDEINESGKAAESVQIGGGGKGKKKGMPAKNLMAERRRRKKLNDRLYMLRSVVPKISKMDRASILGDAIDYLKELLQRINDLHNELESTPPGSLPPTSSSFHPLTPTPQTLSCRVKEELCPSSLPSPKGQQARVEVRLREGRAVNIHMFCGRRPGLLLATMKALDNLGLDVQQAVISCFNGFALDVFRAEQCQEGQEILPDQIKAVLFDTAGYAGMI", "notes": "Two bands were seen, a non-modified (100kD) and a modified (130kD) dimer; source: endogenous, total protein extract of liquid grown Col-0 seedlings"}}, "biological_target": "the molecule itself", "experiment": "immunoblot after SDS-PAGE of extracts made without DTT; total seedling protein extracted in the presence of NEM to inhibit deSUMOylation; anti-ICE1; both bands absent in ice1-2; monomer (50kD) only with DTT (5 mM) and without NEM", "data": [{"protein": "B1", "values": [{"measurement": "stoichiometry N", "result": 2}]}]}
